{"source": "the DeepSol protein solubility set", "data": [{"experiment": "soluble on expression in E. coli; label from the status in PepcDB or PDB records", "values": [{"sequence": "MSVLNPCMTCGACCAYFRVSFYWAEGDDASGRVPASLTEPVTPFLRCMAGTNQKQPHCKALIGTPGENVSCAIYENRPSTCREFSISGEGGEVNEACNRARARYGLPPLYKDMLFHTTADAATVELSRVQLPANLEHHHHHH", "soluble on expression in E. coli": "not soluble"}, {"sequence": "MITSTNKEAYPNTLIVILGHDEGRSSFEEKEDVTRVTNDKGETIGFNFFNVDKLIDFDKLPNGPVKLSDDELEALNKKLAEVGFDDKLEYGKPTLVYGYVKTCEKHPDSDHLHVTTIEVGDGEEHQIVCGAPNIAQGQKVVVALPGTLMPNGAQIWPGKLRGVDSYGMICSARELGLPHAPQKRGIMVVPDSFEVGAEFEPTKCDELIASGEITLLEHHHHHH", "soluble on expression in E. coli": "soluble"}, {"sequence": "MGHHHHHHSHSQIQGVQTNDDLNNDSDDSSDNCVIVGFVKPLAERTPELVELSSDSEDLGSYEKMETVKTQEQEQSYSSGDSDVSRCSSPHSVLGKDEQINKGHCDSSTRIKSKKEEKRSTSLSSPRNLNSSVRGDRVYSPYNHRHRKRGRSRSSDSRSQSRSGHDQKNHRKHHGKKRMKSKRSRSRESSRPRGRRDKKRSRTRDSSWSRRSQTLSLSSESTSRSRSRSSDHGKRRSRSRNRDRYYLRNNYGSRYKWEY", "soluble on expression in E. coli": "not soluble"}, {"sequence": "MSLIGALIATIIPGLSNNSPPTQLSSLATLALPLPPPYTSTADTWRMVTIKPGQTLSSIFNELKLSSNDMERVLNYADLRKLLTRLSPGDEISFDIPNDGQLRGMRFNRDEKHRVELTLDDNTIHQQVSERQTSTRTVIASGEIKSSLWIAAREAGLSPADVITLTDEIFKYDIDFDKDLQTGDRFSVVMDETWREGERLPDAKILAATFNTGGKIYSGMRFMRDGKVEYFDKDGRPLKKSFIRMPISYARLSSTFGLRRHPILGTMRMHKGVDYAAATGTPIMAAGDARVQFIGQQRGYGNVVILNHGKGYRTLYGHMSRFGKIKAGQKINQGTVIGYVGMTGLATGPHLHYEFQVNGQHRNPLSITMPPPEPLRGKDLIAFRTQTAPLIAQIQQYEKRFYAITNKHDSKSTEKSTRGEGHHHHHH", "soluble on expression in E. coli": "not soluble"}, {"sequence": "MGSDKIHHHHHHMTIAIIIATHGVAAEQLLKTTEMLIGEQENVATIDFVPGENAETIMEKYQAKLSGDLAHCDKVLFLVDTWGGSPFNAANRVSEGKDNMDIVTGVNVPMLVETFMARDDGPSLDELVAIALETGRTGVRALRYQEPETEPTAPTSEVPAQPAASQAEPQPAMVTPNQEGHLEIGLARIDDRLIHGQVATRWTKESRVSRIVVVSDEVAKDTVRATMLKSVAPPGVTAHVVNVDKMVRVYNNPEYAGERMMLLFTNPTDVLRLSDAGVDFKSINVGGMAYRDGKKMITNAVSVDDKDIAAFKALDAKGIELDVRKVSNDNRQYMMDLLKKNNLL", "soluble on expression in E. coli": "not soluble"}, {"sequence": "MQKTLSAIFLFTTLSANAAPYIGLELGIGTANHSFETNYQSDAVSLNPNMEDMFLGGLIGYKFNDNFSFEINYSSYKLEDQYSKFIGIESLNNQQYRKEHEWSSEIEAKQLALISVYSYPIHQQLKTNIKVGVTHTQYEAYSGKYEELELLLNDDIEIRKALLETGLKKNRFGALFSLGLDYNLIPELSVGTELRYQFDKYNDVLSISLNSKYYF", "soluble on expression in E. coli": "not soluble"}, {"sequence": "MSLIIKGALVWSGKEFVQKDLFVENGEFVEKSSEPVIDAKGYFLVPGFVDSHAHVVGTGFSKLSVQFNDWDELFERDLTSEVVVGRGWFEEPDGSVVERLDRIEAPVFLIRRCGHKAFLNKKAMEVLGVEERYLVENLEKIYEYVFKEKIAEFYRVGEEEFLKHGVTFVQSDDLYGVSVERLLSIIKHSRIRLFEKLKPKDLKPEHFGDLNKRVHVKGVKVFMDGSLGAKTALISGEYDDGTQGVQLLTEEKLEELARFCDEHDLILNVHAIGDSAVSLVLDVLERHRGHRIIHAQFVQEKDLQRVKNTTFSVQPHFFFEDQPLLKKVKVNALHYPFYRMFKAGVSISFSSDSPVSPCDPKYIAEHALKMGFSREETFYLMTEAGASQVGIKTGKIEAGYRADFCLYERNPLLFEDDPIAVFVEGEKIYEKNGSSHEGHHHHHH", "soluble on expression in E. coli": "soluble"}, {"sequence": "MGHHHHHHSHSPGSASGGSREYKVVMLGAGGVGKSAMTMQFISHQFPDYHDPTIEDAYKTQVRIDNEPAYLDILDTAGQAEFTAMREQYMRGGEGFIICYSVTDRQSFQEAAKFKELIFQVRHTYEIPLVLVGNKIDLEQFRQVSTEEGLSLAQEYNCGFFETSAALRFCIDDAFHGLVREIRKKESMP", "soluble on expression in E. coli": "soluble"}, {"sequence": "MSLNSNHKQPIFDNVLNRKFQVNEPNRAYVSDMTYIPTHEGWLYLTVVIDLFSRKVVGWNMSSRMKADTVCDALTMAIWQRKPKAGLIVHSDRGSQYASKQYRSLLNQHGLVGSMSKKGDCWDNSVAESFFSRLKDELVHWRNYQTRREAKQDILDYMTMFYNNQRLHSSLDYLSPNQFENRYWGLMKKVAEGHHHHHH", "soluble on expression in E. coli": "soluble"}, {"sequence": "MLKSLQIPVEKLTSKGIKSAEDRITWVKREIGRLPEKEEVFNAILEALKEELGIEPYWGELTKEELELFEEKKDYFKSDEWIYHVKKAITGDEILYGIYRCPGGTFRVSAKVDPQTKVLQQVIINGDFFINPKRLIYDLEAYLKHTPVQEVEKRIREFFKEREFESVNLTVDDFVEA", "soluble on expression in E. coli": "soluble"}, {"sequence": "MSLRKEPSSQLELFLNILHGFSTTITSETLNKISEKFLDMVNGSINPSLSLKNKITIVFQDCLTNGFQSANLSKLLENLNSIDVVEVLSEFIHCDLKVGAFSVIDLLDTDIFLSVLSMESLKQTLSIMDKFIIDILLVFTIVDINYEVFAEKLSKLITLHFNISLWLQVYQIDKLLAISETFGHVTKYNYGAQLKSYSDITDFTTLMVGFVKNSPTAEPPIFTRAFSDFILNGEDLTCAKQFLHFVAKPYHVSKDPVEELLYALSLFKCNEYDASIEIFLANDFSDELSLPKYLEVTENHVWYNLLHAINTKDKPAYYYELSVLCSKASSYANALKTIKKSISLDGTRADQLIQYLDTLIVFGDYKEVLDVLRLEQKVLDISLREKYYYTLLSDQKYSEMFTATLLQECYNANISNGSILLCVSDYKIIASILSSQVSLTDWNSYKKLFSFRILNQHERKACEELYDYVLFGSNDEVKEKCLLLISNVLKTFSDAKDQWFISYPGQIIHLHELNDKMNKCSKEGHHHHHH", "soluble on expression in E. coli": "not soluble"}, {"sequence": "MGQFYCLHCDRYFSNVSVRDDHFKTKKHKKRVNMMMGQAPHSQLDADLAGGMGMPDNGPKLMSNLVFTELRKPETEDLPGMGQFNCLLCHRNFSNASVMDYHFKTKKHKKRVKKIERPAPHSQLDADLAGGMGMPDNGPKLMSA", "soluble on expression in E. coli": "not soluble"}, {"sequence": "MGSDKIHHHHHHMPKLVTWMNNQRVGELTKLANGAHTFKYAPEWLASRYARPLSLSLPLQRGNITSDAVFNFFDNLLPDSPIVRDRIVKRYHAKSRQPFDLLSEIGRDSVGAVTLIPEDETVTHPIMAWEKLTEARLEEVLTAYKADIPLGMIREENDFRISVAGAQEKTALLRIGNDWCIPKGITPTTHIIKLPIGEIRQPNATLDLSQSVDNEYYCLLLAKELGLNVPDAEIIKAGNVRALAVERFDRRWNAERTVLLRLPQEDMCQTFGLPSSVKYESDGGPGIARIMAFLMGSSEALKDRYDFMKFQVFQWLIGATDGHAKNFSVFIQAGGSYRLTPFYDIISAFPVLGGTGIHISDLKLAMGLNASKGKKTAIDKIYPRHFLATAKVLRFPEVQMHEILSDFARMIPAALDNVKTSLPTDFPENVVTAVESNVLRLHGRLSREYGSK", "soluble on expression in E. coli": "not soluble"}, {"sequence": "MGETYDLLVIGGGINGVGIARDAAGRGLSVCLCEQDDLAAHTSSASTKLIHGGLRYLEQYEFALVGKALAEREVLLRLAPHIIWPLRFLLPHQPHLRPAWMIRAGLFLYDHLGGSKRSLPRSRRLSLRTHPVGQPLQESLRTGFVYSDAWVQDARLVVLNAMDAAKRGAQIHTRTRCVGAWRDAGFWYAELEGCDGRRRTVQSRALANAAGPWAVSFLDKVAAVPHQHALRLVKGSHIVVPKLFDHDHAYIFQQPDRRIVFAIPYEHDFTLIGTTDVDYEADPSAPKIDAAEVQYLCDAVNLYFQQQITPQDVVWNYSGVRPLLDDAEDNAAEVTRDYQLEVLTDGAPLLNVFGGKLTTYRKLAEEAVDRLTQALGARKPAWTARGEALPGGEQRDIASLLERVRTARPWLPAATAQRLVRNYGTCAEQLLGDAQDMAALGQHFGADLYQAEVDYLCAREWAQTADDILWRRSKLGLRVDAEARARLEAYLQTRPAAHANAQTHVVPALEHHHHHH", "soluble on expression in E. coli": "not soluble"}, {"sequence": "MPLALDDGDVNLSELRAFDLLGRCETGSIVNTVSLSSTGNYLAAGGFDHKVYYYDSRGTQLWNYTTGDIVYTVSISSDGSRIAAGSNDRKVYFFNREGELLWSRKTGGNINSVAVSSEGLYIATGGEDGKVYFLDKDGKLLWSFNSGDAVRSVAISRDGDYVLEHHHHHH", "soluble on expression in E. coli": "not soluble"}, {"sequence": "MNFIVIGAGNIGSGIAQNLLEDGHEVEIADKSRESLNRIRGRNPKIRTREFDVMDRSAYRMLNDYDASVSALPGSIGMQFLKNVAKMGKIVVDVSYMEEDPYDLNGIAQSAGTIIVPDMGFAPGLTNAIVGYFSADLDQIRNVKIYVGGIPEKPVPPLDYTITWSVEGLIDEYTRPVRIVRNGTEDHVPALSGIERIGVGNYADMEAFYTDGLRSLIRNIKCTGEMFEKTIRYPGHAEKMAAIRDLGYFDRIKVDGCNLTMFEISEQIFMEKLFRPDIQDVVLMKVEVSGTKLGREVTRTAEMQTGYDSSRKRTAMDMATSLPASITAEFLSSNGKITSGIVFPEILGKTQNYFEYLVNNMKKKGINVNISVK", "soluble on expression in E. coli": "not soluble"}, {"sequence": "MGSDKIHHHHHHMEILSLGEKIKARRKELNMTLKDLAGDRITPGQISLVESGKSNPSMDLLEYLAGALNTSVEYLMESEETQAEKICVYYENTAEAYMLNDELMEAEQYLEKAMYYAENYKISYRKARTLYLYGCINMNKNELGVAQQFFLSSNVLFIKLNHYEDIINTFINLGKITLNLKAYNSSCSYFEQAERVSRDNDIGNDFLIGEIYYYMSLVYFKMNNSNKTIKYCLMAKEKFAELENKKEYARTLLILSKEYSKSGDVDNAIKYSKKALKAFKENDNMFAVADIENELGKLFYEFENIEESFIHLNKAKEIRKKTKGHEFIETLCNICENYIKLKDTENSQKVLNEIKENIDGNNVFDILKYYMLKYRISILNRSLKEAENILLRALQYAENMELEKEAAEFSVIIGKYYIDNGDDVEAAKYLNSGIEKFKKIGVLKDL", "soluble on expression in E. coli": "not soluble"}, {"sequence": "MLELFLKEEWTTEAKEILRPFGQKKLIGIQMGASNRSRQWFVERWIELAKRIIERDEEVVIVFVGSKNELEEISLVAQALPQDRVFISAGRLSLGAAAALIGELGLLFTPDTGPLHIAVALRVKTISLFAVANPKNSLPDYDQSLHRYIKVDRCCEPCVGKRCAYQKCMEAIGVDEVYEEYKKLQELEHHHHHH", "soluble on expression in E. coli": "soluble"}, {"sequence": "AHHHHHHGSGVEEHKKEAPKTFKFGVITVSDKGAKGEREDKSGPLIIEELSKLGEHVYYKIVPDDKIEVLIALFEAIKSGADVVVTTGGTGITRRDITIESIKPLFDKELSFGEVFRAKSYEEVGYATVLTRATAGIIRGQERIVVVFSLPGSVNAVKTGLEIIKSEVFHILKHARE", "soluble on expression in E. coli": "soluble"}, {"sequence": "MCEATYGGASPQIRRQRFVILGMSDDPHPFFPPAAMTAIASGKIFSGGKRHHEIVRGLLPADAEWIDITVPLDDVFARYREYEEIVVFASGDPLFFGFANTVMNRLPDAVVTVYPTFNSLQMLAHALRMPYHDMRIVSLTGRPWHEFDRALIERAEKIGILTDHEHTPSAIAMRMLDYGYEDYTMSVGTRMGNPQEQCLDTFSLREAADRDFERPNCVILSATRPFVCSRAPLGLSESAFMPLNGRTKMITKMPFRLVSLSCLELHRASSFWDIGFCTGSVSIEAKLNFPHLHITAFEIRPEGAELMPVNSRRFGAPGIAYRIGDFMEEDISSLAPPDAVFIGGHGGRLVEMIAKVHSVMTKGGLLVFNSVSEESRHLFLTGIEACGMELLSSIRLTADGNNPIDILQARKKE", "soluble on expression in E. coli": "not soluble"}, {"sequence": "MTARIYKPAKNAMQSGTAKTREWQLDYEPETPRTIEPLMGWTSSSDMQQQVSLRFHTRDEAVAYCEREGIPYQLIEPKEPVRRRAAYADNFAFRRPEPWTH", "soluble on expression in E. coli": "soluble"}]}]}
